Drawing on the RNAGym collection of RNA variant scans (doi:10.1093/nar/gkz1192), this text covers self-cleavage for 167 variants.

To fix the notation:
B1: CPEB3 Ribozyme (parent)
chain: UAACAGGGGGCCACAGCAGAAGCGUUCACGUCGCAGCCCCUGUCAGAUUCUGGUGAAUCUGCGAAUUCUGCUGUAUAUCUC

In this series the parent is B1. Put plainly: self-cleavage, relative activity (ratio to wild type); higher = more cleavage; in vitro, sequencing. In a few lines: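 Relative activity was defined as the cleaved/total read fraction for a variant divided by the same fraction for the unmutated ribozyme. CPEB3 self-cleaving ribozyme libraries were made by rounds of error-prone PCR, barcoded, and transcribed in vitro with T7 RNA polymerase for 5 hours at 37°C, and cleavage ran through transcription plus a 15 min DNase I step before EDTA. Illumina sequencing of template-switched reverse transcripts gave the reads, and DNA sequencing mapped the barcodes. Averages come from three batches, using variants with at least 5 reads.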
With C71A U80C, the self-cleavage came to 0.63.
Then C23G U31C, with 0.41; and C23U G55A, with 0.24.
The same measure for A13G A35G: 0.92.
Then A3G G22A, with 0.29; and U41C C62A, with 0.19; and U54A C79U, with 1.16.
In the case of G6U G8A, the self-cleavage was 0.23.
Regarding G8C U67G, the self-cleavage was 0.15.
Then U26A C40A, with 0.25; and G63U A75U, with 1.2; and A3G G70A, with 0.69.
Consider A20U A35G, for which the self-cleavage was determined as 0.87.
Turning to A21U G63C, the self-cleavage was 0.28.
The same measure for A2G U41C: 0.78; for A2U U26G: 0.5; for C23U U41A: 0.12.
The same measure for C11G A15C: 0.62; for A20C C23A: 0.09.
In the case of A15U G16A, the self-cleavage was found to be 0.57.
The same measure for C68A U72C: 0.2; for C32U C79A: 0.22.
C34A C44U: the self-cleavage stood at 0.08.
A20U A64G: the self-cleavage stood at 0.35.
Then G61C U80C, with 0.5; and C62U G73U, with 0.21; and C11G U76C, with 0.61.
For the variant C34U U72A, the self-cleavage turned out to be 0.26.
The same measure for U26C A64G: 0.36.
With C50A U80A, the self-cleavage was determined as 0.83.
As for A13U, the self-cleavage stood at 1.17.
In the case of U54C A57C, the self-cleavage was 0.23.
The same measure for A35C U66C: 0.5; for C38G U41C: 0.19.
The same measure for A2C A35G: 1.24; for C14G U72C: 0.69.
With G8U A28U, the self-cleavage was determined as 0.09.
For A2U G19A, the self-cleavage is 0.29.
Then C40U U58C, with 0.24; and U1G U69A, with 0.65.
A15G U49A: the self-cleavage came out at 0.61.
The same measure for C4G: 1.1.
The same measure for C12U U49C: 1.01; for U48A U72G: 0.58; for G9U C62U: 0.13.
Then G9A G16A, with 0.17.
As to A15C U69C, the self-cleavage stood at 0.26.
Then U43A U78A, with 1.29; and A20C U69A, with 0.34.
Consider C4A U72A, for which the self-cleavage was 0.42.
Then A20G G33U, with 0.29; and A35C A64U, with 0.25; and U26C C40U, with 0.34.
Then G24C G73A, with 0.16; and G30U U72C, with 0.08.
For the variant A56U C59G, the self-cleavage stood at 0.13.
Consider G46C U72A, for which the self-cleavage amounted to 0.25.
Then G52A A57G, with 0.99; and U58C U76G, with 0.69; and U54A U72C, with 1.17.
Regarding A2G U26A, the self-cleavage was found to be 0.53.
As for A28U A77U, the self-cleavage was 0.85.
On to C14U A35G, for which the self-cleavage was determined as 1.38.
C32U A77C: the self-cleavage came to 0.15.
As for A20U G52U, the self-cleavage is 0.38.
In the case of U31A U66C, the self-cleavage is 0.26.
Then A3U A28G, with 0.88; and A2G U51C, with 0.34.
Then U43A U58C, with 0.67; and G9A A35G, with 0.66; and A15U C62A, with 0.14.
In the case of C62A U74C, the self-cleavage came out at 0.4.
The same measure for C68U U80C: 1.08.
The same measure for C11U G63A: 0.24.
In the case of A57U U72A, the self-cleavage was 0.43.
In the case of U74C U80C, the self-cleavage was found to be 1.24.
Consider G30A U78A, for which the self-cleavage amounted to 0.53.
For the variant U26C A47U, the self-cleavage is 0.36.
On to A3G G52U, for which the self-cleavage worked out at 1.14.
Turning to U25A U48A, the self-cleavage was found to be 0.32.
Then C50U C79U, with 1.16.
As to U1C U60C, the self-cleavage stood at 0.39.
Take A28G A47C: the self-cleavage stood at 0.23.
Then A2G U60C, with 0.25; and U48C A57C, with 0.5; and A65U A75G, with 0.2.
Regarding U43C U80G, the self-cleavage was 1.01.
The same measure for U41C G63U: 1.13.
With A20G C27A, the self-cleavage amounted to 0.16.
With C29U U72C, the self-cleavage worked out at 0.75.
A45G C71U: the self-cleavage was found to be 0.65.
U51A G53A: the self-cleavage turned out to be 1.27.
On to U67G A75U, for which the self-cleavage is 0.6.
The same measure for G36C U60A: 0.08; for U54A U74A: 1.22; for G22U U80C: 0.24.
Consider G24C U54A, for which the self-cleavage was found to be 0.13.
Then U41C G46U, with 0.34; and U25A U49A, with 0.19; and U43A U66A, with 0.69.
Then G53A A75C, with 1.18; and U43G U54C, with 0.45.
As for G24C U51C, the self-cleavage was determined as 0.32.
The same measure for U67C U76A: 0.3; for G46A A65G: 0.14; for G46U U74A: 0.46.
As for G53A G55A, the self-cleavage came out at 0.87.
With C14A U43C, the self-cleavage came out at 0.83.
The same measure for A5G A45G: 0.63; for A13U U80A: 1.25.
The same measure for C11A A64U: 0.06.
For the variant A5G G42C, the self-cleavage was determined as 0.49.
U54C A65G: the self-cleavage came to 0.49.
The same measure for U60A U78G: 0.38.
Then G10A C81G, with 0.3.
As to A65G U76G, the self-cleavage stood at 0.53.
For C27U U48C, the self-cleavage is 0.18.
The same measure for U26C G61U: 0.35; for U54C U80A: 1.17.
On to A65U U69A, for which the self-cleavage was determined as 0.3.
Then C40U G61A, with 0.42; and U1C C40A, with 0.18.
Regarding G63U U76C, the self-cleavage was 1.12.
As for G9A U72C, the self-cleavage was determined as 0.39.
In the case of A20C C34U, the self-cleavage was 0.18.
As to C27A C32U, the self-cleavage was 0.3.
With A28U G46U, the self-cleavage worked out at 0.14.
Consider U31C C79A, for which the self-cleavage was 0.94.
The same measure for A15U A35G: 1.24; for C11G U66A: 0.49; for U43C C68G: 0.11.
Regarding G9C A18U, the self-cleavage amounted to 0.08.
The same measure for U31C G52C: 1.14; for G10U C32U: 0.21.
The same measure for G30A A35G: 0.22; for C59A A64G: 0.2.
The same measure for C29U U43A: 0.53.
Take U74A U78C: the self-cleavage is 1.23.
Then A56G G73C, with 1.26.
G63C U74C: the self-cleavage was found to be 1.21.
The same measure for A28C U74C: 0.7; for C50U U54C: 0.77; for G33A C59U: 0.24.
Consider A45U C62G, for which the self-cleavage was 0.44.
The same measure for A56U U69A: 0.33; for C17A A45U: 0.22.
Then U25A U54A, with 0.26.
U43C U54C: the self-cleavage came out at 0.32.
The same measure for G6A U69G: 0.27; for U25A G61U: 0.18; for C37U A77U: 0.91.
Regarding A28G U66G, the self-cleavage was 0.2.
In the case of A35C C39A, the self-cleavage is 0.31.
The same measure for A20C U26C: 0.34; for G36A C50A: 0.25.
For A35G, the self-cleavage came to 1.27.
Then A3G G8A, with 0.37; and U41A G53A, with 0.38; and A47G U66G, with 0.27.
A28G G33U: the self-cleavage is 0.16.
The same measure for C29U A65G: 0.27.
Then U74C C79A, with 1.31; and A2U A65U, with 0.29; and C59A A75U, with 0.13.
Then U54C C59A, with 0.3; and U25G U49A, with 0.26; and C34U A64G, with 0.45.
